What was measured:
[1] = target: T1, full-length GLI1 S102E S116E S130E, 35S-radiolabeled (human, UniProt P08151-1 1-1106, S102E | S116E | S130E, [35S]-methionine label); experiment: pull-down; purified GST-SUFU, 1.25-80 nM, captured on glutathione-Sepharose beads; ∼1 pmol 35S-GLI1 (1-232 or full length) in 200 μl; 15 min at 30°C, then 1 h at room temperature; Binding Buffer + 1 mg/ml BSA; bound GLI1 quantified by SDS-PAGE and Phosphorimager; Kd from binding isotherms; details: one partner purified
T1 construct: human GLI1, full length (1,106 residues); also called FL-GLI1^EEE; GLI1^EEE; source: in vitro transcription/translation, partially purified by ammonium sulfate precipitation
T1 sequence (looked up): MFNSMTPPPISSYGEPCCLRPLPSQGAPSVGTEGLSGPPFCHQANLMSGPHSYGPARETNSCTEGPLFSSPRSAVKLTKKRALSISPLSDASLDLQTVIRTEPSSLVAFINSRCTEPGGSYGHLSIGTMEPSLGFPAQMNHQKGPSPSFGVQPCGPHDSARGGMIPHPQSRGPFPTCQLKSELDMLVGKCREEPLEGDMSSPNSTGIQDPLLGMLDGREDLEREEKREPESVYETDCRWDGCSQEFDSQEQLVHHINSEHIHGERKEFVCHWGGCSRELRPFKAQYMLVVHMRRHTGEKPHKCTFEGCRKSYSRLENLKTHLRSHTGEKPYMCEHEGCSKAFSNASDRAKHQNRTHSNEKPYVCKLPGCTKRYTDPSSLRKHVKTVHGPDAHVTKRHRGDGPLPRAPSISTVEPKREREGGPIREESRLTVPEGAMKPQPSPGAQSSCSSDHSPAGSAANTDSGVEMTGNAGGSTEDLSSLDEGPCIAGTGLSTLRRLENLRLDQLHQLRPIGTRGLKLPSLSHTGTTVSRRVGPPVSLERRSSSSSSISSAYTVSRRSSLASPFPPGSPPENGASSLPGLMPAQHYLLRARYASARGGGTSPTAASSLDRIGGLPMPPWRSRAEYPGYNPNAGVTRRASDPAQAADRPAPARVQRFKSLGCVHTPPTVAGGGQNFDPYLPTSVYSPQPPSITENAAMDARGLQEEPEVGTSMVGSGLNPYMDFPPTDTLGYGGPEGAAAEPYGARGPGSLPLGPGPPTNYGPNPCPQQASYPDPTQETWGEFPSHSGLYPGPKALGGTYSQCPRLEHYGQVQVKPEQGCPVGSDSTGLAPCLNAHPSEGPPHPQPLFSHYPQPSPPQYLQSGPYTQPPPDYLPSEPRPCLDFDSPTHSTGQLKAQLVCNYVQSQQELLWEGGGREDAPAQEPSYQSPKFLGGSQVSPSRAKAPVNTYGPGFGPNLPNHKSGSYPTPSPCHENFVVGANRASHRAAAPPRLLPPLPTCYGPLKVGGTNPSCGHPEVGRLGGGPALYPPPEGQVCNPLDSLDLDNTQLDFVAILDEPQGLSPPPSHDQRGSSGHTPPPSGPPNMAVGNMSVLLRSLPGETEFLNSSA

[2] = target: T2, full-length GLI1, wild type, 35S-radiolabeled (human, UniProt P08151-1 1-1106, [35S]-methionine label); experiment: as above; details: one partner purified
T2 construct: human GLI1, full length (1,106 residues); the plasmid used for in vitro translation of full-length GLI1 is not described; also called full-length GLI1 protein; FL-GLI1; source: in vitro transcription/translation, partially purified by ammonium sulfate precipitation
T2 sequence (looked up): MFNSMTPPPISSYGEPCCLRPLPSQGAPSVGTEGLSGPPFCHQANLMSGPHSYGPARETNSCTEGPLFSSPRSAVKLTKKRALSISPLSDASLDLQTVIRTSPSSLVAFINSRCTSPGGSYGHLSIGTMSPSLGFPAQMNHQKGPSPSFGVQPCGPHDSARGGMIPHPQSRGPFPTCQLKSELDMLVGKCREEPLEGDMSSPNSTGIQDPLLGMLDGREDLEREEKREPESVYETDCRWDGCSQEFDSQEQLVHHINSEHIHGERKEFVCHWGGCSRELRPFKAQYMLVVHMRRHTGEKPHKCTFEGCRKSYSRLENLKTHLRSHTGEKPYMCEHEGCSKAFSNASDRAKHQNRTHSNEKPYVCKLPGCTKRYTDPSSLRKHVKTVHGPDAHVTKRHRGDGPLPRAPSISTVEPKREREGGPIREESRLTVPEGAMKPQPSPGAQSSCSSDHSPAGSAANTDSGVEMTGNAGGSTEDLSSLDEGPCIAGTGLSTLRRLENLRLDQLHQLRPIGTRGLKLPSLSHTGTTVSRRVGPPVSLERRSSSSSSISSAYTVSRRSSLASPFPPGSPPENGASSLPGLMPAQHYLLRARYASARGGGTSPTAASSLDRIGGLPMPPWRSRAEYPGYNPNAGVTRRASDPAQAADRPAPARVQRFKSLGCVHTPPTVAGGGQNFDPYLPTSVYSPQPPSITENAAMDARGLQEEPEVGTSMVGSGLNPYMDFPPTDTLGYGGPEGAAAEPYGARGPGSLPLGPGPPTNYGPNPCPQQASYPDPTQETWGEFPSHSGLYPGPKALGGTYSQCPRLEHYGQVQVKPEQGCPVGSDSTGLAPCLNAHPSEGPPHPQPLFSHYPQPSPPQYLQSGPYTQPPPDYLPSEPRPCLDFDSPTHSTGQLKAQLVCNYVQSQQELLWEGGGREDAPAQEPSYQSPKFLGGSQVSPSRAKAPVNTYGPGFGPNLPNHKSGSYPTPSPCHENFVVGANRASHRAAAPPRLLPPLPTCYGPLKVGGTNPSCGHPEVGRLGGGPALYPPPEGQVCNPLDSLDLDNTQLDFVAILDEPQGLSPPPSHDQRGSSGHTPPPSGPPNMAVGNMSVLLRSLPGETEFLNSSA

Kd [1]: 42 ± 8 nM
Kd [2]: 14 ± 4 nM
B1: GST-SUFU (fusion of GST to full-length human SUFU) (natural protein, UniProt Q9UMX1-1 1-484, looked up)
chain: MAELRPSGAPGPTAPPAPGPTAPPAFASLFPPGLHAIYGECRRLYPDQPNPLQVTAIVKYWLGGPDPLDYVSMYRNVGSPSANIPEHWHYISFGLSDLYGDNRVHEFTGTDGPSGFGFELTFRLKRETGESAPPTWPAELMQGLARYVFQSENTFCSGDHVSWHSPLDNSESRIQHMLLTEDPQMQPVQTPFGVVTFLQIVGVCTEELHSAQQWNGQGILELLRTVPIAGGPWLITDMRRGETIFEIDPHLQERVDKGIETDGSNLSGVSAKCAWDDLSRPPEDDEDSRSICIGTQPRRLSGKDTEQIRETLRRGLEINSKPVLPPINPQRQNGLAHDRAPSRKDSLESDSSTAIIPHELIRTRQLESVHLKFNQESGALIPLCLRGRLLHGRHFTYKSITGDMAITFVSTGVEGAFATEEHPYAAHGPWLQILLTEEFVEKMLEDLEDLTSPEEFKLPKEYSWPEKKLKVSILPDVVFDSPLH
notes: human SUFU, full length (residues 1-484), BamHI-SUFU-SalI cassette in pGEX-LB; pGEX-LB carries a Gly-Gly-Gly-Gly-Gly-Ser-Gly stretch between GST and the fused protein; also called full-length GST-SUFU; source: Escherichia coli, purified (glutathione-Sepharose); not shown: GST, N-terminal, kept

From paper PMC9279676, “ERK2 MAP kinase regulates SUFU binding by multisite phosphorylation of GLI1” (Life Science Alliance, 2022)
